Assay results as given in US20240002531A1 (ONO PHARMACEUTICAL, published 2024).

Legend:
[1] = target: T1, HER2-K615A expressed on CHO-K1 cells (human, UniProt P04626 23-1255); experiment: flow cytometry on CHO-K1 cells expressing the point mutant
T1 construct: also called K615A point mutant; not shown: PA tag at the N terminus; RAP tag and MAP tag at the C terminus

[2] = target: T2, HER2-F616A expressed on CHO-K1 cells (human, UniProt P04626 23-1255); experiment: as above
T2 construct: also called F616A point mutant; not shown: PA tag at the N terminus; RAP tag and MAP tag at the C terminus

[3] = target: T3, HER2 peptide p614-622 (human); experiment: SPR Biacore, mAb on chip, peptide analyte, 1:1 fit;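 note: all binding measurements run at 25 °C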
T3 peptide: WKFPDEEGA

[4] = target: T4, HER2 peptide p612-618 (human); experiment: SPR Biacore, mAb on chip, peptide analyte, 1:1 fit;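 note: all binding measurements run at 25 °C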
T4 construct: also called PIWKFPD
T4 peptide: PIWKFPD

[5] = target: T5, HER2 peptide p613-619 (human); experiment: SPR Biacore, mAb on chip, peptide analyte, 1:1 fit;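 note: all binding measurements run at 25 °C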
T5 peptide: IWKFPDE

[6] = target: T6, HER2 peptide p614-619 (human); experiment: SPR Biacore, mAb on chip, peptide analyte, 1:1 fit;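 note: all binding measurements run at 25 °C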
T6 peptide: WKFPDE

[7] = target: T7, HER2 peptide p614-621 (human); experiment: SPR Biacore, mAb on chip, peptide analyte, equilibrium analysis
T7 peptide: WKFPDEEG

[8] = target: T8, HER2 peptide p614-620 (human); experiment: as above
T8 peptide: WKFPDEE

[9] = target: T2, HER2-F616A expressed on CHO-K1 cells; experiment: flow cytometry on CHO-K1 cells expressing HER2-F616A
[10] = target: T9, HER2-W614A expressed on CHO-K1 cells (human, UniProt P04626 23-1255); experiment: flow cytometry on CHO-K1 cells expressing the point mutant
T9 construct: also called W614A point mutant; not shown: PA tag at the N terminus; RAP tag and MAP tag at the C terminus

[11] = target: T10, HER2 peptide p609-622 (human); experiment: SPR Biacore, mAb on chip, peptide analyte, 1:1 fit
T10 peptide: SYMPIWKFPDEEGA

[12] = target: T11, HER2 peptide p609-621 (human); experiment: SPR Biacore, mAb on chip, peptide analyte, 1:1 fit
T11 peptide: SYMPIWKFPDEEG

[13] = target: T12, HER2 peptide p612-620 (human); experiment: SPR Biacore, mAb on chip, peptide analyte, 1:1 fit
T12 peptide: PIWKFPDEE

[14] = target: T13, HER2 peptide p609-619 (human); experiment: SPR Biacore, mAb on chip, peptide analyte, 1:1 fit
T13 peptide: SYMPIWKFPDE

[15] = target: T14, HER2 peptide p612-619 (human); experiment: SPR Biacore, mAb on chip, peptide analyte, 1:1 fit
T14 peptide: PIWKFPDE

[16] = target: T15, HER2 peptide p613-618 (human); experiment: SPR Biacore, mAb on chip, peptide analyte, 1:1 fit
T15 peptide: IWKFPD

[17] = target: T16, HER2 peptide p611-622 (human); experiment: SPR Biacore, mAb on chip, peptide analyte, 1:1 fit
T16 peptide: MPIWKFPDEEGA

[18] = target: T17, HER2 peptide p609-620 (human); experiment: SPR Biacore, mAb on chip, peptide analyte, 1:1 fit
T17 peptide: SYMPIWKFPDEE

[19] = target: T18, HER2 peptide p603-622 (amino acids 603 to 622 of human HER2) (human); experiment: SPR Biacore, mAb on chip, peptide analyte, 1:1 fit
T18 construct: Synthetic peptide; also called wild-type HER2 peptide
T18 peptide: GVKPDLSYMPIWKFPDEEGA

[20] = target: T19, HER2 peptide p610-621 (human); experiment: SPR Biacore, mAb on chip, peptide analyte, 1:1 fit
T19 peptide: YMPIWKFPDEEG

[21] = target: T20, HER2 peptide p610-619 (human); experiment: SPR Biacore, mAb on chip, peptide analyte, 1:1 fit
T20 peptide: YMPIWKFPDE

[22] = target: T21, HER2 peptide p611-621 (human); experiment: SPR Biacore, mAb on chip, peptide analyte, 1:1 fit
T21 peptide: MPIWKFPDEEG

[23] = target: T22, HER2 peptide p613-620 (human); experiment: SPR Biacore, mAb on chip, peptide analyte, 1:1 fit
T22 peptide: IWKFPDEE

[24] = target: T23, W614A peptide (HER2 603-622 with W614A) (human); experiment: SPR Biacore, mAb on chip, peptide analyte, equilibrium analysis (ka N.D.)
T23 peptide: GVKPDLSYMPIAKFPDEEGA

[25] = target: T1, HER2-K615A expressed on CHO-K1 cells; experiment: flow cytometry on CHO-K1 cells expressing HER2-K615A

B1: H2Mab-214 antibody (antibody, V domains shown)
VH: QVTLKESGPGILQPSQTLSLTCSFSGFSLSTSGMGVSWIRQPSGKGLEWLAHIFWDDDKRYNPSLKSRLTISKDTSRNKVFLKITSVDTADTATYYCARRVVATDWYFDVWGAGTTVTVSS
VL: DIVLTQSPASLAVSLGQRATISCRASESVEYYGTTLMQWYQQKPGQPPKLLIYAASKVESGVPARFSGSGSGTDFSLNIHPVEEDDVAMYFCQQSRKVPLTFGAGTKLELKR
notes: Mouse monoclonal from a hybridoma (immunogen HER2ec made in LN229 cells); also called antibody of the present invention
**Q.** Which results are given for B1?
**A.** binding result [1]: no binding (tested: 10 g/mL (so in the source)); binding result [2]: no binding (tested: 10 g/mL (so in the source)); Kd [3]: 26.4 µM; koff [3]: 0.0115 s⁻¹; kon [3]: 435 M⁻¹ s⁻¹; Kd [4]: 0.0277 µM; koff [4]: 0.013 s⁻¹; kon [4]: 467000 M⁻¹ s⁻¹; Kd [5]: 1.61 µM; koff [5]: 0.0136 s⁻¹; kon [5]: 8450 M⁻¹ s⁻¹; Kd [6]: 8.54 µM; koff [6]: 0.0119 s⁻¹; kon [6]: 1400 M⁻¹ s⁻¹

B2: H2Mab-250 antibody (antibody, V domains shown)
VH: EVQLVESGGGLVQPGGSLKLSCAASGFTFSNYGMSWVRQTPDRRLELVATINNNGGGTYYPDSVKGRFTISRDNAKNTLYLQMSSLKSEDTAMYYCTSPGLLWDAWGAGTTVTVSS
VL: not shown
notes: as for B1
**Q.** Which results are given for B2?
**A.** Kd [7]: 26.6 µM; Kd [8]: 26.4 µM; binding result [9]: binds; binding result [10]: no binding (tested: 10 g/mL (so in the source)); Kd [11]: 0.00157 µM; koff [11]: 0.00033 s⁻¹; kon [11]: 210000 M⁻¹ s⁻¹; Kd [12]: 0.00117 µM; koff [12]: 0.000289 s⁻¹; kon [12]: 247000 M⁻¹ s⁻¹; Kd [13]: 0.00439 µM; koff [13]: 0.000756 s⁻¹; kon [13]: 172000 M⁻¹ s⁻¹; Kd [14]: 0.0012 µM; koff [14]: 0.000293 s⁻¹; kon [14]: 244000 M⁻¹ s⁻¹; Kd [15]: 0.00336 µM; koff [15]: 0.000841 s⁻¹; kon [15]: 250000 M⁻¹ s⁻¹; Kd [16]: 0.00445 µM; koff [16]: 0.00289 s⁻¹; kon [16]: 649000 M⁻¹ s⁻¹; Kd [17]: 0.00202 µM; koff [17]: 0.000378 s⁻¹; kon [17]: 187000 M⁻¹ s⁻¹; Kd [18]: 0.00124 µM; koff [18]: 0.000291 s⁻¹; kon [18]: 234000 M⁻¹ s⁻¹; Kd [19]: 0.00367 µM; koff [19]: 0.00033 s⁻¹; kon [19]: 90100 M⁻¹ s⁻¹; Kd [20]: 0.00136 µM; koff [20]: 0.000347 s⁻¹; kon [20]: 256000 M⁻¹ s⁻¹; Kd [21]: 0.00119 µM; koff [21]: 0.00038 s⁻¹; kon [21]: 319000 M⁻¹ s⁻¹; Kd [22]: 0.00189 µM; koff [22]: 0.000411 s⁻¹; kon [22]: 218000 M⁻¹ s⁻¹; Kd [23]: 0.0131 µM; koff [23]: 0.00371 s⁻¹; kon [23]: 283000 M⁻¹ s⁻¹; Kd [24]: 1050 µM; binding result [25]: binds
